Measured values published in patent publication US20140057807A1 (UNIVERSITY OF CHICAGO, published 2014).

B1: SEQ ID NO 169 (designed binder)
chain: PLSPPTNLHLEANPDTGVLTVSWERSTTPDITDYYIITRSRWGYLEEVVHADQSSCTFDNLSPGLRYHVYVWTVGHYRDPISDTIIP
B2: SEQ ID NO 176 (designed binder)
chain: PLSPPTNLHLEANPDTGVLTVSWERSTTPDITKYIIYTGYGASYDLEEVVHADQSSCTFDNLSPGLKYTVTVWTVSYASQVPISDTIIP
B3: SEQ ID NO 163 (designed binder)
chain: SLSPPTNLHLEANPDTGVLTVGWERSTTPGITSYSIDTAKDDVPYLEEVVHADQSSCTFDNLSPGLNYTVVVATVGWSVDGPISDTIIP
B4: SEQ ID NO 172 (designed binder)
chain: PLSPPTNLHLEANPDTGVLTVSWERSTTPDITYYSIDTWTFGQWGLEEVVHADQSSCTFDNLSPGLYYYVEVVTVYEWAYSYPISDTIIP
B5: SEQ ID NO 193 (designed binder)
chain: PLSPPTNLHLEANPDTGVLTVSWERSTTPDITMYGIVTIYTRYYSLEEVVHADQSSCTFDNLSPGLIYWVYVLTVYYSWYRPISDTIIP
B6: SEQ ID NO 188 (designed binder)
chain: PLSPPTNLHLEANPDTGVLTVSWERSTTPDITKYYILTSGYWGGGLEEVVHADQSSCTFDNLSPGLTYLVSVWTVTHYAGYPISDTIIP
B7: SEQ ID NO 173 (designed binder)
chain: PLSPPTNLHLEANPDTGVLTVSWERSTTPDITMYAITTYEYSRAWQYLEEVVHADQSSCTFDNLSPGLTYYVEVYTVRYTWSDPISDTIIP
B8: SEQ ID NO 182 (designed binder)
chain: PLSPPANLRLEANPDTGVLTVSWERSTTPDITRYVIATGYGGSWYHLEEVVHADQSRCTFDNLSPGLAYYVDVYTVTPGEKHSPISDTIIP
B9: SEQ ID NO 171 (designed binder)
chain: PLSPPTNLHLEANPDTGVLTVSWERSTTPDITYYTIATADYTYSYAHLEEVVHADQSSCTFDNLSPGLNYEVGVGTVSVYSYIGPISDTIIP
B10: SEQ ID NO 194 (designed binder)
chain: PLSPPTNLHLEANPDTGVLTVSWERSTTPDITTYVIDTGAAVNYVLEEVVHADQSSCTFDNLSPGLQYSVDVVVTVWYSWYMPISDTIIP
B11: SEQ ID NO 185 (designed binder)
chain: PLSPPTNLHLEANPDTGVLTVSWERSTTPDITMYYISTGGSSYKPDRLEEVVHADQSSCTFDNLSPGLDYMVYVRTVMYYNRSPISDTIIP
B12: SEQ ID NO 180 (designed binder)
chain: PLSPPTNLHLEANPDTGVLTVSWERSTTPDITYYYIDTNGGYWSYLEEVVHADQSSCTFDNLSPGLGYPVGYVRTVYAGWLKGPISDTIIP
B13: SEQ ID NO 164 (designed binder)
chain: PLSPPTNLHLEANPDTGVLTVSWERSTTPDITYYEINTTGYYGFYPGGLEEVVHADQSSCTFDNLSPGLYYQVTVQTVVYSMWYHPISDTIIP
B14: SEQ ID NO 189 (designed binder)
chain: PLSPPTNLHLEANPDTGVLTVSWERSTTPDITYYSITTSFYYSELEEVVHADQSSCTFDNLSPGLKYMVSVSTVSYSVGSPISDTIIP
B15: SEQ ID NO 186 (designed binder)
chain: PLSPPTNLHLEANPDTGVLTVSWERSTTPDITGYSIATYLTYSNLVGLEEVVHADQSSCTFDNLSPGLSYKVSVYTVYGYSYGPISDTIIP
B16: SEQ ID NO 168 (designed binder)
chain: PLSPPTNLHLEANPDTGVLTVSWERSTTPDITTYGIETQTVEWVYYLEEVVHADQSSCTFDNLSPGLYYNVTVGTVMLDAAYPISDTIIP
B17: SEQ ID NO 199 (designed binder)
chain: PLSPPTNLHLEANPDTGVLTVSWERSTTPDITAYVIYTYSESDGRVLEEVVHADQSSCTFDNLSPGLRYSVKVSTVYYSYAYPISDTIIP
B18: SEQ ID NO 167 (designed binder)
chain: PLSPPTNLHLEANPDTGVLTVSWERSTTPDVTTYSIYTYGYWDSHYMSLEEVVHADQSRCTFDNLSPGLYYSVEVYTVYYGLYVVPISDTIIP
B19: SEQ ID NO 166 (designed binder)
chain: PLSPPTNLHLEANPDTGVLTVSWERSTTPDITWYWIGTWYSGYMVGLEEVVHADQSSCTFDNLSPGLTYWVLVGTVVRSPSRRPISDTIIP
B20: SEQ ID NO 202 (designed binder)
chain: VSDVPRDLEVVAATPTSLLISWDAPAVTVRYYYILYGDYNAYMDYAGQEFTVPGSKSTATISGLKPGVGYVEIDVYAVRTSEEQPISINYRT
B21: SEQ ID NO 196 (designed binder)
chain: PLSPPTNLHLEANPDTGVLTVSWERSTTPDITYYYIHTYYWKHWQSLEEVVHADQSSCTFDNLSPGLKYGVWVSTVYRVVYYPISDTIIP
B22: SEQ ID NO 165 (designed binder)
chain: PLSPPTNLHLEANPDTGVLTVSWERSTTPDITYYGIWTLTWLQYYSYRWGLEEAVHADQSSCTFDNLSPGLVYLVYVGTVRSPMARPISDTIIP
B23: SEQ ID NO 177 (designed binder)
chain: PLSPPTNLHLEANPDTGVLTVSWERSTTPDITMYSIYTYDYTRNYVLEEAVHADQSSCTFDNLSPGLYGYYVGVGTVTGAGWHPISDTIIP
B24: SEQ ID NO 179 (designed binder)
chain: PLSPPTNLHLEANPDTGVLTVSWERSTTPDITMYDIKTIYYKAYYYGLEEVVHADQSSCTFDNLSPGLYYFVGVVTVERPRYYPISDTIIP
B25: SEQ ID NO 198 (designed binder)
chain: PLSPPTNLHLEANPDTGVLTVSWERSTTPDITVYYIYTYTYNADLILEEVVHADQSSCTFDNLSPGLIYSVYVGTVASDDGRPISDTIIP
B26: SEQ ID NO 195 (designed binder)
chain: PLSPPTNPHLEANPDTGVLTVSWERSTTPDITTYWIGTYYSADERLEEVVHADQSSCTFDNLSPGLYYAVVVGTVGVWYRVAPISDTIIP
B27: SEQ ID NO 161 (designed binder)
chain: PLSPPTNLHLEANPDTGVLTVSWERSTTRDITTYGIETEYDHSVGLEEVVHADQSSCTFDNLSPGLNYDVEVVTVGWGVYQRPISDTIIP
B28: SEQ ID NO 197 (designed binder)
chain: PLSPPTNLHLEASPDTGVLTVSWERSTTPDITTYLILTYLGYSRVLEEVVHADQSSCTFDNLSPGLWYMVYVDTVGRVPYIGPISDTIIP
B29: SEQ ID NO 174 (designed binder)
chain: PLSPPTNLHLEANPDTGVLTVSWERSTTPDITDYNISTWLYTSVSVYTELEEVVHAGQSSCTFDNLSPGLAYVVYVWSTVWEHFYPSPISDTIIP
B30: SEQ ID NO 181 (designed binder)
chain: PLSPPTNLHLEANPDTGVLTVSWERSTTPDITYYYIGTYQGTTYEHLEEVVHADQSSCTFDNLSPGLIYLVYVSTVYWDSMSSPISDTIIP
B31: SEQ ID NO 191 (designed binder)
chain: PLSPPTNLHLEANPDTGVLTVSWERSTTPDITRYYIRTSYVRHGRLEEVVHADQSSCTFDNLSPGLYYNVSVSTVGYYYMLPISDTIIP
B32: SEQ ID NO 175 (designed binder)
chain: PLSPPTNLHLEANPDTGVLTVSWERSTTPDITWYWINTSLANVRMSLEEVVHADQSGCTFDNLSPGLYYDVQVRTVSAAEGYPISDTIIP
B33: SEQ ID NO 178 (designed binder)
chain: PLSPPTNLHLEVNPDTGVLTVSWERSTTPGITQYDIATLSYGGRSGGLEEVVHADQSSCTFDNLSPGLSYVVSVSTVTSNEYSAPISDTIIP
B34: SEQ ID NO 170 (designed binder)
chain: PLSPPTNLHLEANPDTGVLTVSWERSTTPDITNYLIQTDYFAFIKGVLEEVVHADQSSCTFDNLSPGLYYYVGVDTVSVPSHGPISDTIIP
B35: SEQ ID NO 201 (designed binder)
chain: VSDVPRDLEVVAATPTSLLISWDAPAVTVRGYYISYYYHSTRDSQEFTVPGSKSTATISGLKPGVSYYVGVGAVWKKDYYFPISINYRT
B36: SEQ ID NO 192 (designed binder)
chain: PLSPPTNLHLEANPDTGVLTVSRERSTTPDITTYSIYTHSGALYVLEEVVHADQSSCTFDNPSPGLNYNVSVSTVHSRWRYGPISDTIIP
B37: SEQ ID NO 187 (designed binder)
chain: PLSPPTNLHLEANPDTGVLTVSWERSTTSDITKYYIATWFGDYGYSLEEVVHADQSSCTFDNLSPGLQYGVSVATVKGGQAHYPISDTIIP
B38: SEQ ID NO 184 (designed binder)
chain: PLSPPTNLHLEANPDTGVLTVSWERSTTPDITSYRISTEWRWRYTGLEEVVHADQSSCTFDNLSPGLIYGVGVSTVWKHNSQAPISDTIIP
B39: SEQ ID NO 183 (designed binder)
chain: PLSPPTNLHLEANPDTGVLTVSWERSTTPDITKYIISTYVDYGGYLEEVVHADQSSCTFDNLSPGLGYSVTVSTVSAGWDSPISDTIIP

Biological target: T1, human serum albumin (human, UniProt P02768 25-609)
T1 construct: also called HSA
Test: cradle library selection hit

T1 sequence (P02768 25-609 limits assumed): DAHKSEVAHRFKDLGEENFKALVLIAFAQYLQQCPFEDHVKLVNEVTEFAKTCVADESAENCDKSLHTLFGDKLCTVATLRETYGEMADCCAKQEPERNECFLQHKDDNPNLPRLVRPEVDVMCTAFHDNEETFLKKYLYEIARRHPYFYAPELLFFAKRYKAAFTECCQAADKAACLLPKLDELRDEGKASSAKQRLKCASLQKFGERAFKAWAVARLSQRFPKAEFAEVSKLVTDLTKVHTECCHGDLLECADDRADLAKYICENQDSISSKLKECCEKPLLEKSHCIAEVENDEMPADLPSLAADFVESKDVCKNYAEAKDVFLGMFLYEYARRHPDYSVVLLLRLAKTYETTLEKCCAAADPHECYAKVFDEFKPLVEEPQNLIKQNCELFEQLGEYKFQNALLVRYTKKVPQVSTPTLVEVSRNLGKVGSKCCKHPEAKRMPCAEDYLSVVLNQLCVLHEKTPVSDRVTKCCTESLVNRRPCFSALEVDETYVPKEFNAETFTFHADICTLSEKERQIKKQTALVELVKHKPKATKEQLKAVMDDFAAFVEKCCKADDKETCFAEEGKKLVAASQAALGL

| binding result | Binder |
| --- | --- |
| binds | B1 |
| binds | B2 |
| binds | B3 |
| binds | B4 |
| binds | B5 |
| binds | B6 |
| binds | B7 |
| binds | B8 |
| binds | B9 |
| binds | B10 |
| binds | B11 |
| binds | B12 |
| binds | B13 |
| binds | B14 |
| binds | B15 |
| binds | B16 |
| binds | B17 |
| binds | B18 |
| binds | B19 |
| binds | B20 |

| binding result | Binder |
| --- | --- |
| binds | B21 |
| binds | B22 |
| binds | B23 |
| binds | B24 |
| binds | B25 |
| binds | B26 |
| binds | B27 |
| binds | B28 |
| binds | B29 |
| binds | B30 |
| binds | B31 |
| binds | B32 |
| binds | B33 |
| binds | B34 |
| binds | B35 |
| binds | B36 |
| binds | B37 |
| binds | B38 |
| binds | B39 |
